Assay results taken from patent US20220195053A1 (SURROZEN OPERATING, published 2022).
Values belong to the binder of their own block, whether it stands above or below them.

What was measured:
[1] = molecular target: T1, Mucin 13, cell surface associated (MUC-13), on human intestine HT29 cells (human, UniProt Q9H3R2 19-512); experiment: Flow cytometry (FACS) on MUC-13 expressing HT29 cells, antibody at 10 nM, fluorescent goat anti-human secondary antibody, compared with the anti-GFP IgG control. MUC-13 negative HEK293 cells serve as the specificity control.
T1 construct: whole, on cells
T1 sequence (looked up): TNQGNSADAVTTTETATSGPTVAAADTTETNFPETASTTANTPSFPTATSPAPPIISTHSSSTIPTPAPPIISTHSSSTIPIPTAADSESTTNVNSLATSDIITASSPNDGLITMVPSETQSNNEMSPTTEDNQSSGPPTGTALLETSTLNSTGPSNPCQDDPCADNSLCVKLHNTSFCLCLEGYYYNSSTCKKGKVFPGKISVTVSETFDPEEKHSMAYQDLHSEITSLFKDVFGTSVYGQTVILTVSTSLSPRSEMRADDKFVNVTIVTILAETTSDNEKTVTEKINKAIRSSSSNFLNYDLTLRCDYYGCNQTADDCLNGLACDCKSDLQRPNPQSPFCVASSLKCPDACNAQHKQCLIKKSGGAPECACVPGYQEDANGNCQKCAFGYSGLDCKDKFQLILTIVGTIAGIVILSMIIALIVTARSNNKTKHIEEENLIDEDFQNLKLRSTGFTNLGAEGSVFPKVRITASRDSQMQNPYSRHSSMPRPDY
Experimental: (§1) Cell surface binding of the MUC-13 antibodies was examined by FACS at 10 nM.
(§2) The MUC-13 binders C4, C7, and C14 (see, e.g., WO2016168607A1) were cloned and produced in the full-length IgG format and their binding capacity to MUC-13 was determined by FACS analysis to MUC-13 expressing HT29 cells. Their potential binding to MUC-13 non-expressing HEK293 cells was also analyzed as a negative control. Cells were harvested and washed 2× with FACS buffer (PBS (—Ca²⁺, —Mg²⁺), 0.1% BSA, 0.5% sodium Azide) and resuspended in FACS buffer at 10⁶ cells/ml. 60 μl of the cell suspension was aliquoted to each well of a 96-well v bottom plate, and the plate was spun for 3 min at 1500 rpm to remove the FACS buffer before adding corresponding MUC-13 antibody or anti-GFP control antibody at 10 nM diluted in FACS buffer and incubated at 4C for 1 hour. Plate was then spun to remove the primary antibodies and washed 1× with FACS buffer before adding Alexa Fluor® 488 goat anti-human secondary antibody (ThermoFisher Scientific) and incubating at 4C for 30 min. This media was then removed after spinning, and the plate washed 1× in FACS buffer. Cells were then resuspended in […] FACS buffer and analyzed on a BD Accuri™ Cell Analyzers (Becton Dickinson) at 10,000 events. […]

[2] = molecular target: T1, Mucin 13, cell surface associated …; experiment: Flow cytometry (FACS) on MUC-13 expressing HT29 cells, antibody at 10 nM, compared with the anti-GFP IgG control. HEK293 cells serve as the MUC-13 negative control.
Experimental: as §1, §2

binding result [1]: binds
B1: C14 MUC-13 antibody, full-length IgG format (antibody, V domains shown)
VH: QVQLQQSGAELVRPGSSVKISCKASGYAFSTYWMNWVKQRPGQGLEWIGQIYPGDGDTYYNGNFKGKATLTADKSSSTAYMQLSSLTSEDSAVYFCAVFWDGYWGQGTTLTVSS
VL: QIVLTQSPTIMSASPGEKVTMTCSASSSVTYIHWYQQKSGTSPKRWIYDTSKLASGVPARFGGSGSGTSYSLTINSMETEDAATYYCQQWSSNPFTFGSGTKLEIKR

binding result [2]: no binding (tested: 10 nM)
B2: C4 MUC-13 antibody, full-length IgG format (antibody, V domains shown)
VH: DVQLQESGPGLVKPSQSLSLTCSVTGYSITSGYYWNWIRQFPGNKLEWMGYISYDGSNNYNPSLKNRISITRDTSKNQFFLKLNSVTTEDTATYYCVRVPTMITSYYFDYWGQGTTLTVSS
VL: QIVLTQSPAIMSASPGEKVTISCSASSSVGYIYWYQQKPGSSPKPWIYRTSNLASGVPARFSGSGSGTSYSLTISSMEAEDAATYYCQQYHSYPPTFGGGTKLEIKR
